According to paper PMC8012256:

Molecular target: cross-linked CA A14C/E45C/W184A/M185A hexamer (HIV-1)
Experiment: crystal structure

Row | Substance | stoichiometry N (Sec24C(228–242) molecules per CA hexamer) | stoichiometry N
1 | Sec24C(228–242) peptide (from UniProt P53992-1 228-242) | 6 | 
2 | cross-linked CA A14C/E45C/W184A/M185A hexamer (complex) |  | 6
